Target: the molecule itself
Assay: SEC + other: dynamic light scattering

B1: AlbB expressed alone (natural protein, Streptomyces noursei)
chain: MNPGETVLPPQLREEIALLAVYLLSSGRGLLEEPADYGIYRCTDGARRALQLLDEHGGSTARLTAVRERLDEVMFAPMGEDRDMGAILDDLCRQMADALPEIETP
stoichiometry N: 2

Source: paper PMC10557607 (bioRxiv, 2023)
